From patent US20220267458A1 come the findings set out here.

The target in test [1] is GITR protein overexpressed on Hela cells (Hela-GITR-NF-κB-Luc-Rep). Description: cell-based or functional assay.
Test [2] deals with human GITR-His (human) (UniProt Q9Y5U5). Description: ForteBio BLI, antibody on AHQ tip, human GITR-His 100 nM in solution.
Test [3] shares this target. Described as above. This is another data set of the same source.
Test [4] has the same target. Briefly: ForteBio BLI, antibody on AHQ tip, human GITR-His 100 nM in solution, 1:1 model.
Test [5] deals with human GITR overexpressed on CHO cells (CHO-GITR) (human) (UniProt Q9Y5U5). Briefly: flow cytometry on CHO-GITR cells, PE anti-human Fc detection, MFI; direct binding titration, the table row is labelled IC50, nM is taken from the concentration axis.
Sequence of human GITR overexpressed on CHO cells (CHO-GITR) (human) (Q9Y5U5 26-241): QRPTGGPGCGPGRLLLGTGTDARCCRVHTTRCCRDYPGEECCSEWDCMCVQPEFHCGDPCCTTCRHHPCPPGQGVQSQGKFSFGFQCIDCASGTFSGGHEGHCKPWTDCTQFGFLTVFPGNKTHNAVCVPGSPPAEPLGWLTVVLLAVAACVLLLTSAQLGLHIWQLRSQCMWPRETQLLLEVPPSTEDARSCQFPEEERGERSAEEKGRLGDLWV

Sequence of human GITR-His (human) (Q9Y5U5 other isoform, or with tags, fused parts or gaps): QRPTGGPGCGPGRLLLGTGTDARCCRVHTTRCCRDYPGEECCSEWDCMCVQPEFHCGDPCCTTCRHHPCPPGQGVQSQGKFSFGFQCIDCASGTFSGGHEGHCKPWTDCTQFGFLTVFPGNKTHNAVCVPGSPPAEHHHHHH

TRX518 (antibody): the EC50 for the activation (NF-κB luciferase reporter) in test [1] was 2.1 nM. Besides, in the test with human GITR-His (human) [2], the Kd turned out to be 8.53 nM, the koff was determined as 0.00292 s⁻¹ and the kon was determined as 342000 M⁻¹ s⁻¹. For the same substance, in the test with human GITR-His (human) [3], the Kd turned out to be 9.62 nM, the koff is 0.00206 s⁻¹ and the kon stood at 214000 M⁻¹ s⁻¹. In the test with human GITR-His (human) [4], this substance gave a Kd of 26.2 nM, a koff of 0.00484 s⁻¹ and a kon of 185000 M⁻¹ s⁻¹. In test [5], this substance displayed an EC50 for binding of 0.242 nM.
